Reference: the supplement of paper PMC9112550, “Optimization of the antimicrobial peptide Bac7 by deep mutational scanning” (BMC Biology, 2022)

Tested on: Escherichia coli TOP10
Experiment: shrunken log2 fold change of peptide-encoding DNA abundance (4.5 h post-induction vs induction); higher = less antimicrobial activity (less host growth inhibition)
Conditions: time post-induction: 4.5 h; library: site-saturation at positions 5, 18, 19, 20
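Also: peptides expressed intracellularly from a pBAD plasmid library in pooled LB shake-flask culture, induced with 0.3% L-arabinose, DNA abundance read by NGS, three biological replicates, DESeq2 with apeglm shrinkage.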

Sequence	shrunken log2 fold change
RRIRYRPPRLPRPRPRPPMVPRP	-0.35
RRIRKRPPRLPRPRPRPLKRPRP	0.321
RRIRQRPPRLPRPRPRPNETPRP	-0.0269
RRIRTRPPRLPRPRPRPSYHPRP	-0.833
RRIRYRPPRLPRPRPRPSWAPRP	-0.21
RRIRVRPPRLPRPRPRPRFPPRP	0.285
RRIRWRPPRLPRPRPRPCGRPRP	0.376
RRIRGRPPRLPRPRPRPLWCPRP	0.204
RRIRMRPPRLPRPRPRPTAHPRP	0.767
RRIRLRPPRLPRPRPRPHFCPRP	0.0717
RRIRCRPPRLPRPRPRPTPRPRP	0.987
RRIRTRPPRLPRPRPRPHWYPRP	-0.135
RRIRDRPPRLPRPRPRPHDFPRP	-0.00663
RRIRARPPRLPRPRPRPFMTPRP	0.178
RRIRERPPRLPRPRPRPLMQPRP	0.0114
RRIRMRPPRLPRPRPRPFSDPRP	-0.0199
RRIRMRPPRLPRPRPRPYTFPRP	-0.0434
RRIRARPPRLPRPRPRPYPSPRP	-0.0433
RRIRPRPPRLPRPRPRPFMGPRP	-0.448
RRIRLRPPRLPRPRPRPRMHPRP	0.136
RRIRLRPPRLPRPRPRPVREPRP	0.185
RRIRTRPPRLPRPRPRPANHPRP	-0.179

Sequence	shrunken log2 fold change
RRIRWRPPRLPRPRPRPTGQPRP	-0.0283
RRIRGRPPRLPRPRPRPMNMPRP	-0.318
RRIRERPPRLPRPRPRPAYVPRP	-0.859
RRIRMRPPRLPRPRPRPSCGPRP	0.687
RRIRTRPPRLPRPRPRPRVDPRP	0.181
RRIRARPPRLPRPRPRPRDRPRP	0.706
RRIRIRPPRLPRPRPRPQVQPRP	-0.195
RRIRKRPPRLPRPRPRPQNAPRP	-0.0942
RRIRTRPPRLPRPRPRPMMYPRP	-0.00147
RRIRFRPPRLPRPRPRPTIDPRP	0.103
RRIRSRPPRLPRPRPRPVCWPRP	0.714
RRIRWRPPRLPRPRPRPGIIPRP	-0.0357
RRIRFRPPRLPRPRPRPCPYPRP	-0.261
RRIRPRPPRLPRPRPRPAKQPRP	0.0651
RRIRMRPPRLPRPRPRPHYQPRP	-0.228
RRIRARPPRLPRPRPRPCTQPRP	0.148
RRIRARPPRLPRPRPRPFPRPRP	0.0695
RRIRQRPPRLPRPRPRPGNRPRP	-0.0286
RRIRKRPPRLPRPRPRPTQIPRP	0.412
RRIRMRPPRLPRPRPRPPSKPRP	0.557
RRIRWRPPRLPRPRPRPVWNPRP	-0.232
RRIRMRPPRLPRPRPRPQHRPRP	0.0767

Sequence	shrunken log2 fold change
RRIRCRPPRLPRPRPRPEIGPRP	-0.237
RRIRWRPPRLPRPRPRPAHHPRP	-0.0193
RRIRPRPPRLPRPRPRPAYPPRP	0.0124
RRIRPRPPRLPRPRPRPFLDPRP	-0.413
RRIRCRPPRLPRPRPRPGSTPRP	-0.474
RRIRGRPPRLPRPRPRPQWPPRP	0.475
RRIRRRPPRLPRPRPRPVCQPRP	0.179
RRIRARPPRLPRPRPRPNWNPRP	-0.0314
RRIRTRPPRLPRPRPRPPTCPRP	0.174
RRIRMRPPRLPRPRPRPSRLPRP	0.19
RRIRSRPPRLPRPRPRPQTMPRP	-0.35
RRIRSRPPRLPRPRPRPQYTPRP	-0.983
RRIRDRPPRLPRPRPRPIPSPRP	0.0554
RRIRRRPPRLPRPRPRPFYIPRP	-0.039
RRIRSRPPRLPRPRPRPCTIPRP	-0.148
RRIRQRPPRLPRPRPRPLCKPRP	-0.406
RRIRERPPRLPRPRPRPLIWPRP	-0.364
RRIRFRPPRLPRPRPRPWPQPRP	0.127
RRIRIRPPRLPRPRPRPRTVPRP	-0.197
RRIRYRPPRLPRPRPRPETEPRP	0.0184
RRIRVRPPRLPRPRPRPMHDPRP	-0.134
RRIRPRPPRLPRPRPRPREKPRP	0.489

Sequence	shrunken log2 fold change
RRIRDRPPRLPRPRPRPNIAPRP	0.169
RRIRCRPPRLPRPRPRPKHSPRP	-0.401
RRIRMRPPRLPRPRPRPQFSPRP	0.0281
RRIRDRPPRLPRPRPRPKIFPRP	-0.0898
RRIRIRPPRLPRPRPRPLPHPRP	-0.0305
RRIRQRPPRLPRPRPRPTDIPRP	-0.0659
RRIRRRPPRLPRPRPRPYFDPRP	-0.823
RRIRDRPPRLPRPRPRPRFTPRP	0.21
RRIRRRPPRLPRPRPRPIFYPRP	-0.0503
RRIRSRPPRLPRPRPRPGDRPRP	-0.267
RRIRLRPPRLPRPRPRPNSMPRP	-0.0473
RRIRWRPPRLPRPRPRPICPPRP	-0.0872
RRIRWRPPRLPRPRPRPIQHPRP	0.00853
RRIRMRPPRLPRPRPRPHPGPRP	0.293
RRIRYRPPRLPRPRPRPDAEPRP	-0.0535
RRIRERPPRLPRPRPRPCVWPRP	0.0291
RRIRIRPPRLPRPRPRPHEDPRP	-0.182
RRIRFRPPRLPRPRPRPPFCPRP	0.0782
RRIRFRPPRLPRPRPRPTQIPRP	0.0911
RRIRVRPPRLPRPRPRPDEDPRP	0.185
RRIRRRPPRLPRPRPRPTCCPRP	0.397
RRIRYRPPRLPRPRPRPEMHPRP	2.42

Sequence	shrunken log2 fold change
RRIRWRPPRLPRPRPRPGISPRP	-0.00138
RRIRHRPPRLPRPRPRPSHYPRP	0.288
RRIRFRPPRLPRPRPRPCYHPRP	-0.859
RRIRWRPPRLPRPRPRPIHIPRP	-0.694
RRIRQRPPRLPRPRPRPAKVPRP	0.325
RRIRYRPPRLPRPRPRPSPRPRP	0.062
RRIRTRPPRLPRPRPRPSIEPRP	-0.155
RRIRTRPPRLPRPRPRPGILPRP	-0.0375
RRIRRRPPRLPRPRPRPMQYPRP	-0.126
RRIRMRPPRLPRPRPRPITAPRP	0.244
RRIRVRPPRLPRPRPRPIFWPRP	0.00106
RRIRNRPPRLPRPRPRPHAMPRP	-0.316
RRIRSRPPRLPRPRPRPSLAPRP	0.164
RRIRYRPPRLPRPRPRPEHMPRP	-0.304
RRIRERPPRLPRPRPRPYYWPRP	-0.192
RRIRARPPRLPRPRPRPDLWPRP	1.51
RRIRFRPPRLPRPRPRPNYCPRP	-0.499
RRIRHRPPRLPRPRPRPRYQPRP	-1.18
RRIRCRPPRLPRPRPRPMPNPRP	-0.368
RRIRKRPPRLPRPRPRPQLHPRP	0.0197
RRIRMRPPRLPRPRPRPEHSPRP	0.234
